Laboratory results taken from patent US20260374878 (published 2026).

Biological target: T1, CLL1 (expressed on K562-CLL1 cells) (human, UniProt Q5QGZ9)
T1 chain: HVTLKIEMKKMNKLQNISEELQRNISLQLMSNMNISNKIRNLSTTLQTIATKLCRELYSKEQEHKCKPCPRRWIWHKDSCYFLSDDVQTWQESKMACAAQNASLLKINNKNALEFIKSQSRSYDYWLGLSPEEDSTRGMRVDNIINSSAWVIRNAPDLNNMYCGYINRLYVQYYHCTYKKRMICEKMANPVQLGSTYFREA
Test: FACS, K562-CLL1 cells, room temperature, bivalent Fc fusion

- Kd: 5 nM
B1: CLL1-VHH-16-hFc (antibody)
chain 1: DVQLQESGGGLVQPGGSLRLSCAASGFTFGSYDMTWVRQAPGKGPEWVSGINSGGSSTYYADSVKGRFTISRDNAKNTLYLQMNSLKPEDTAVYYCATIDRLSTVVAGTYQPSEEYDYWGQGTQVTVSS
chain 2: not shown
